Reference: paper PMC12033333 (Nature Communications, 2025)

T1: SBP-fused phyA^PSM (Arabidopsis thaliana, UniProt P14712 1-615, chromophore-bound (phycocyanobilin, PCB))
T1 sequence: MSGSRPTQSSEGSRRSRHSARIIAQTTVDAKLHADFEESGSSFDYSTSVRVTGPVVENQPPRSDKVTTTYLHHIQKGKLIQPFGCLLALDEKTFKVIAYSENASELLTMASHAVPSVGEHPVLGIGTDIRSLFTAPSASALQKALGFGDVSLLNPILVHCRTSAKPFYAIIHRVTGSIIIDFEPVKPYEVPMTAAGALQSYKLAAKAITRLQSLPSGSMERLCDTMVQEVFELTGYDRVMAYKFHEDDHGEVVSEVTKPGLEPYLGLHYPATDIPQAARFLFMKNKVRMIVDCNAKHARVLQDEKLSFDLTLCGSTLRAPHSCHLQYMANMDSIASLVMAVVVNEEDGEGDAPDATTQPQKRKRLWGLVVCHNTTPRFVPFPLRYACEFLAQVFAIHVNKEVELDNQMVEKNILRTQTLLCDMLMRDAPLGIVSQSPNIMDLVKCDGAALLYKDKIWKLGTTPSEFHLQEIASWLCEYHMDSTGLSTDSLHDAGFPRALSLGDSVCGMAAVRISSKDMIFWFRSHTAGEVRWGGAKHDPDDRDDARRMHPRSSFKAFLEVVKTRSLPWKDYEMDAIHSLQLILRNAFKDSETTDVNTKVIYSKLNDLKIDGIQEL

T2: GST-PIF3 (Arabidopsis thaliana, UniProt O80536 1-524)
T2 sequence: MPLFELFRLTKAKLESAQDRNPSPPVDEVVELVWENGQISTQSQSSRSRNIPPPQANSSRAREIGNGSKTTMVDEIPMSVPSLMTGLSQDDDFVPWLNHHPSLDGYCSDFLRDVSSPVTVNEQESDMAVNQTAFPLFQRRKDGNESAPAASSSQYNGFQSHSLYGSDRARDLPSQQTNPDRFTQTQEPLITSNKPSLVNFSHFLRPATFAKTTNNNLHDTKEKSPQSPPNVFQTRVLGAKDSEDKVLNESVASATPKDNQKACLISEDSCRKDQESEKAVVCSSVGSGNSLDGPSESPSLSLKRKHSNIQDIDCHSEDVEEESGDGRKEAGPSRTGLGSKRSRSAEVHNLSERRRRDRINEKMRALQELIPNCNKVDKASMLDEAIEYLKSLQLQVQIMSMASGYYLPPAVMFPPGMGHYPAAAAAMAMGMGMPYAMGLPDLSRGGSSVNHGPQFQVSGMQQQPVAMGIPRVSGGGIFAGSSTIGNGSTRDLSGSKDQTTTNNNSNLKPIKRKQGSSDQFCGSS

T3: MBP-fused phyB^OPM (Arabidopsis thaliana, UniProt P14713 642-1172)
T3 sequence: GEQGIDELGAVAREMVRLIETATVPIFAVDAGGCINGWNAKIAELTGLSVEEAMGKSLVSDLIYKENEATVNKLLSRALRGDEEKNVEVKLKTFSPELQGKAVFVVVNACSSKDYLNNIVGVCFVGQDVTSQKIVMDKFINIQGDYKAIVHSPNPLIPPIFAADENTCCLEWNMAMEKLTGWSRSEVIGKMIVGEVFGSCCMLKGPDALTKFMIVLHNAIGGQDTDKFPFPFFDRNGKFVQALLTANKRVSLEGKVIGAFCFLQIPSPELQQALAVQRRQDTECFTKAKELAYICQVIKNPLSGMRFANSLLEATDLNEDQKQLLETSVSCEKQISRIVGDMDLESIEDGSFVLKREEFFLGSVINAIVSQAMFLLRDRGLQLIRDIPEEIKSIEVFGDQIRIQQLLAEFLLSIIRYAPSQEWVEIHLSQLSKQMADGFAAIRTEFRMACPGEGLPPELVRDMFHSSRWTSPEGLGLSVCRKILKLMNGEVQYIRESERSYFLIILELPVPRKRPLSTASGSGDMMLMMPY

B1: MBP-fused phyA^OPM (domain or fragment)
chain: KIDGIQELEAVTSEMVRLIETATVPILAVDSDGLVNGWNTKIAELTGLSVDEAIGKHFLTLVEDSSVEIVKRMLENALEGTEEQNVQFEIKTHLSRADAGPISLVVNACASRDLHENVVGVCFVAHDLTGQKTVMDKFTRIEGDYKAIIQNPNPLIPPIFGTDEFGWCTEWNPAMSKLTGLKREEVIDKMLLGEVFGTQKSCCRLKNQEAFVNLGIVLNNAVTSQDPEKVSFAFFTRGGKYVECLLCVSKKLDREGVVTGVFCFLQLASHELQQALHVQRLAERTAVKRLKALAYIKRQIRNPLSGIMFTRKMIEGTELGPEQRRILQTSALCQKQLSKILDDSDLESIIEGCLDLEMKEFTLNEVLTASTSQVMMKSNGKSVRITNETGEEVMSDTLYGDSIRLQQVLADFMLMAVNFTPSGGQLTVSASLRKDQLGRSVHLANLEIRLTHTGAGIPEFLLNQMFGTEEDVSEEGLSLMVSRKLVKLMNGDVQYLRQAGKSSFIITAELAAANK
B2: GST-fused APA (PIF3 86-221 a.a.) (domain or fragment)
chain: GLSQDDDFVPWLNHHPSLDGYCSDFLRDVSSPVTVNEQESDMAVNQTAFPLFQRRKDGNESAPAASSSQYNGFQSHSLYGSDRARDLPSQQTNPDRFTQTQEPLITSNKPSLVNFSHFLRPATFAKTTNNNLHDTK

Tests used:
Assay in all cases: pull-down
[1] = molecular target: T1, SBP-fused phyA^PSM
[2] = molecular target: T2, GST-PIF3
[3] = molecular target: B1
[4] = molecular target: T3, MBP-fused phyB^OPM

Binder	binding result [1]	binding result [2]	binding result [3]	binding result [4]
B1	binds	binds		
B2			binds	binds
